Laboratory results reported in publication PMC4513882.

Molecular target: SAMHD1 wt (human) (UniProt Q9Y3Z3)
Experiment: AFM

Chain of SAMHD1 wt (human) (Q9Y3Z3 whole entry): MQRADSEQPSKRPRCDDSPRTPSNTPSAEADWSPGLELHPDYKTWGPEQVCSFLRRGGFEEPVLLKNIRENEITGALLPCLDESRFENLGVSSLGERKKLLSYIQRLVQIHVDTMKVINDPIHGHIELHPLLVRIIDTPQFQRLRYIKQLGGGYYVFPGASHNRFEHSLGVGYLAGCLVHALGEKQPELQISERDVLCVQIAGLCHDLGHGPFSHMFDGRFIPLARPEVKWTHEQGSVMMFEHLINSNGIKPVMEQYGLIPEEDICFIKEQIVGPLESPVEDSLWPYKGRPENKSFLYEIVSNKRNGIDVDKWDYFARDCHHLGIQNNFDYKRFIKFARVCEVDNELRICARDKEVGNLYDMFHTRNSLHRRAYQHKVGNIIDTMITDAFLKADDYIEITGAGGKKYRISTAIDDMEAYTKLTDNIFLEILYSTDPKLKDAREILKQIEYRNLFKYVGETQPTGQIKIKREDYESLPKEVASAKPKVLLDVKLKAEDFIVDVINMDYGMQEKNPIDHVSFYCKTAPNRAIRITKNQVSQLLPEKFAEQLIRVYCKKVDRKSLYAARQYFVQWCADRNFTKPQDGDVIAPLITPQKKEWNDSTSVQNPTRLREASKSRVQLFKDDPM

Substance | binding signal (% ssDNA ends bound) | binding signal (% ssRNA ends bound)
AFM DNA, 295 bp duplex with 60 nt ssDNA overhang | 26 | –
GGUUAUUCUCUUAUUUAUUCUAUCUAUCUCUCUCUUCUCUAUUUCCUCACAUCCUCUCUCACUCUCUAUCUCUAUCUCCUCUCUCUUCUCUCUCUCUCUCUCUCCUCUCUAUAUUCUUCUCUCUUCUCUCCUCUCCUCUCUCUCUCUCUUUAUUCUUCCACUUUUUUCCUUCUCACUUCUCUUCUUCUUUAUUCUUCUCAUCUCAUCUCAUCUCAUCUCAUCUCAUCUCAUCUCAUCUCAUCUCAUCUCAUCUCAUCUCAUCUCAUCUCAUCUCAUCUCAUCUCAUCUCAUCUCAUCUCAUCUCAGG / TGAGAAGAATAAAGAAGAAGAGAAGTGAGAAGGAAAAAAGTGGAAGAATAAAGAGAGAGAGAGAGGAGAGGAGAGAAGAGAGAAGAATATAGAGAGGAGAGAGAGAGAGAGAGAAGAGAGAGGAGATAGAGATAGAGAGTGAGAGAGGATGTGAGGAAATAGAGAAGAGAGAGATAGATAGAATAAATAAGAGAATAACC [AFM RNA, 200 bp RNA:DNA duplex with 102 nt ssRNA overhang] | – | 84
